{"source": "the nanobody polyreactivity screen of Harvey et al. (2022)", "data": [{"assay": "yeast display, Sf9 membrane polyspecificity reagent, FACS + sequencing; frameworks hold sequencing errors", "in_short": "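Sorting gates, low and high (top ~1%), were placed on anti-HA fluorescence to track expression and on streptavidin fluorescence to track reagent binding. A clone's polyreactivity label is taken from the gate it came out of. The reagent was 10% biotinylated, detergent-solubilized Sf9 membrane, applied for 1 hour at 4 °C to galactose-induced yeast display cells.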", "values": [{"sequence": "QVQLVESGGGLVQAGGSLRLSCAASGLIFTWNAMGWYRQAPGKEREFVAAISTGGSTSYADSVKGRFTISRDNAKNTVYLQMNRLKPEDTAVYYCARDSSIWSHGSWYDYWGQGTQVTVSS", "polyreactivity (PSR sort gate)": "low polyreactivity"}, {"sequence": "QVQLVESGGGLVQAGGSLRLSCAASGLIFTYYAMGWYRPAPGKERELVASINYSGGSTYYADSVKGRFTISRDNAKNSVYLHMNSLKPEDTAVYYCAARRVTQTEGPMGYWGQGTQVTVSS", "polyreactivity (PSR sort gate)": "low polyreactivity"}, {"sequence": "QVQLVESGGGLVQAGGSLRLSCAASGLIFVAFAMGWYRQAPGKERELVAAISRSGGSTYYADSVKGRFTISRDNAKNTVYLQMNSLKPEDTAVYYCAKYYGARHVDDDYWGQGTQVTVSS", "polyreactivity (PSR sort gate)": "high polyreactivity"}, {"sequence": "QVQLVESGGGLVQAGGSLRLSCAASGLIFVANAMGWYRQAPGKERELVAAISRSGGITYYADSVKGRFTISRDNAKNTVYLQMNSLKPEDTAVYYCAAELVYFFIYDYWGQGTQVTVSS", "polyreactivity (PSR sort gate)": "low polyreactivity"}, {"sequence": "QVQLVESGGGLVQAGGSLRLSCAASGLIFVAYAMGWYRQAPGKERELVAAISRNGGSTYYADSVKGRFTISRDNAKNTVYLQMNSLKPEDTAVYYCAARYAYYTARYTQVKGLDYWGQGTLVTVSS", "polyreactivity (PSR sort gate)": "high polyreactivity"}, {"sequence": "QVQLVESGGGLVQAGGSLRLSCAASGLIFVDYTMGWYRQAPGKERELVAGISNSGNTNYADSVKGRFTISRDNAKNTVYLQMNSLKPEDTAVYYCAAVYTWYPWYPYDYWGQGTQVTVSS", "polyreactivity (PSR sort gate)": "low polyreactivity"}, {"sequence": "QVQLVESGGGLVQAGGSLRLSCAASGLIFVKNTMGWYRQAPGKERELVAGISQRGGSTYYADSVKGRFTISRDNAKNSVYLQMNILKPEDTAVFYCAAYSRTFEGHRGGYWGQGTQVTVSS", "polyreactivity (PSR sort gate)": "high polyreactivity"}, {"sequence": "QVQLVESGGGLVQAGGSLRLSCAASGLIFVNYAMGWYRQAPGKERELVAAISVSGGSTYYADSVKGRFTISRDNAKNTVYLQMNSLNPEDTAVYYCNAYFRSQRYGYRVDYWGQGTQVTVSS", "polyreactivity (PSR sort gate)": "high polyreactivity"}, {"sequence": "QVQLVESGGGLVQAGGSLRLSCAASGLIFVRYAMGWYRQAPGKERELVATITWSGGTTYADSVKGRFTISRDNAKNTVYLQMNSLKPEDTAVYYCAVEWPAWTDSDYPVGGHAFGYWGQGTQVTVSS", "polyreactivity (PSR sort gate)": "low polyreactivity"}, {"sequence": "QVQLVESGGGLVQAGGSLRLSCAASGLIFVSYAMGWYRPAPGKERELVASITDSDSSTYYADSVKGRFTISRDNAKNTVYLQMNSLKPEDTAVYYCATGGRTEIWYPTLDYWGQGTQVTVSS", "polyreactivity (PSR sort gate)": "low polyreactivity"}, {"sequence": "QVQLVESGGGLVQAGGSLRLSCAASGLIFVWYAMGWYRQAPGKERELVAAISWRGGTRYYADSVKGRFTISRDNAKNTVYLQMTSLKPEDTAVYYCARDPDTYFFPPNGYYSSGFDSWGQGTQVTVSS", "polyreactivity (PSR sort gate)": "low polyreactivity"}, {"sequence": "QVQLVESGGGLVQAGGSLRLSCAASGLIFVWYAMGWYRQAPGKERELVAAISWRGGTTYYADSVKGRFTISRDNAKNTVYLQMNSLKPEDTAVYYCNAVGSQVDYLRYVWYDMDYWGQGTQVTVSS", "polyreactivity (PSR sort gate)": "low polyreactivity"}, {"sequence": "QVQLVESGGGLVQAGGSLRLSCAASGLIFWHYAMGWYIQAPGKERELVARISYGGGSTYYADSVKGRFTISRDNAKNTVYLQMISLKPEDTSVYYCNAKYYSVSQYYWGQGTQVTVSS", "polyreactivity (PSR sort gate)": "high polyreactivity"}, {"sequence": "QVQLVESGGGLVQAGGSLRLSCAASGLIFWQYAMGCYRQAPGKERELVAAISIGGSTNYADSVKGRFTISRDNAKNTVYFQMNSLKPEDTAVYYCNAAFLRQVWAGYNYWGQGTQVTVSS", "polyreactivity (PSR sort gate)": "high polyreactivity"}, {"sequence": "QVQLVESGGGLVQAGGSLRLSCAASGLIFYAYAMGWYRQAPGKERELVAAISGSGGNTYYADSVKGRFTISRDNAKNTVYLQMNSLKPEDTAVYYCAADYTAAYPDSMYYWGQGTQVTVSS", "polyreactivity (PSR sort gate)": "low polyreactivity"}, {"sequence": "QVQLVESGGGLVQAGGSLRLSCAASGLIFYDNMGWYRQAPGKERELVAAISSSGGSTSYADSVKGRFTISRDNAKNTVYLQMNSLKPEDTAVYYCAAQYPAYYTNSYWGQGTQVTVSS", "polyreactivity (PSR sort gate)": "low polyreactivity"}, {"sequence": "QVQLVESGGGLVQAGGSLRLSCAASGLIFYDNMGWYRQAPGKERELVAAISSSGGSTSYAYSVKGRFSISRDNAKYTVYLQMISLKREDTAVYYCAADSYRAYLGFVGFDYWGQGTQVTVSS", "polyreactivity (PSR sort gate)": "low polyreactivity"}]}]}
